Measured values: article PMC3046868 (Nature, 2010)

Target: the molecule itself
Assay: western blot

B1: HA-tagged wild-type APCDD1 (natural protein)
chain: not shown
modifications: glycosylated
stoichiometry N: 2
